The values below come from patent CN115232213A (HEFEI TIANGANG IMMUNOLOGY PHARMACEUTICAL CO LTD, dated 2022).

This assay has as its target T1, TROP2蛋白 (TROP2 protein, SEQ ID NO:27) expressed on transduced cells (human, UniProt P09758 27-323).
T1 construct: also called CHO-K1-TROP2细胞; A375-TROP2细胞
T1 sequence: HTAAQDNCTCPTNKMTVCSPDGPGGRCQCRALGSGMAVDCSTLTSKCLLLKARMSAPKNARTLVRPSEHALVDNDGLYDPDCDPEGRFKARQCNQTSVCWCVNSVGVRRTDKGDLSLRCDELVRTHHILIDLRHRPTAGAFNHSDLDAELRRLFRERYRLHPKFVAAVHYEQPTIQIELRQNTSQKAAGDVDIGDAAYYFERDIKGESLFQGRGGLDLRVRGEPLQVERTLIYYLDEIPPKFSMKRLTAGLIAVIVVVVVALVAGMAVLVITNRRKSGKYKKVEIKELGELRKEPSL
As to the kind of experiment: flow cytometry on CHO-K1-TROP2 cells, Alexa-647 rat anti-human Fc detection. (In general: In flow cytometry, cells or beads pass a laser one at a time.)

B1: CD3×TROP2双特异性抗体 (CD3×TROP2 bispecific antibody) (bispecific antibody, human IgG1, kappa, L234A L235A)
chain: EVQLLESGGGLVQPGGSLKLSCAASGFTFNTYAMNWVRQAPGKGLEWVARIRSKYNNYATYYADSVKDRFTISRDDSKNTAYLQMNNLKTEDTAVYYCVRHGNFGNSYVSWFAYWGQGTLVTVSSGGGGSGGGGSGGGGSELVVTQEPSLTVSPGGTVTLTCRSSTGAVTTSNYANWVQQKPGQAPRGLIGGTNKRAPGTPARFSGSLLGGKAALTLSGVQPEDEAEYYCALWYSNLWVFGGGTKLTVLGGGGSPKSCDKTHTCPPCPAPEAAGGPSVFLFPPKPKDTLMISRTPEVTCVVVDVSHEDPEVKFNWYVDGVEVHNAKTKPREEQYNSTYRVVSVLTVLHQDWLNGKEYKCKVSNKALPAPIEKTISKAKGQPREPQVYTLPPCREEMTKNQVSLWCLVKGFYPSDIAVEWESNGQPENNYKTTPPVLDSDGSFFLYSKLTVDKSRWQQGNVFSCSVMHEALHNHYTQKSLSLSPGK
heavy: QVQLQQSGSELKKPGASVKVSCKASGYTFTNYGMNWVKQAPGQGLKWMGWINTYTGEPTYTDDFKGRFAFSLDTSVSTAYLQISSLKADDTAVYFCARGGFGSSYWYFDVWGQGSLVTVSSASTKGPSVFPLAPSSKSTSGGTAALGCLVKDYFPEPVTVSWNSGALTSGVHTFPAVLQSSGLYSLSSVVTVPSSSLGTQTYICNVNHKPSNTKVDKKVEPKSCDKTHTCPPCPAPEAAGGPSVFLFPPKPKDTLMISRTPEVTCVVVDVSHEDPEVKFNWYVDGVEVHNAKTKPREEQYNSTYRVVSVLTVLHQDWLNGKEYKCKVSNKALPAPIEKTISKAKGQPREPQVCTLPPSREEMTKNQVSLSCAVKGFYPSDIAVEWESNGQPENNYKTTPPVLDSDGSFFLVSKLTVDKSRWQQGNVFSCSVMHEALHNHYTQKSLSLSPGK
light: DIQLTQSPSSLSASVGDRVSITCKASQDVSIAVAWYQQKPGKAPKLLIYSASYRYTGVPDRFSGSGSGTDFTLTISSLQPEDFAVYYCQQHYITPLTFGAGTKVEIKRTVAAPSVFIFPPSDEQLKSGTASVVCLLNNFYPREAKVQWKVDNALQSGNSQESVTEQDSKDSTYSLSSTLTLSKADYEKHKVYACEVTHQGLSSPVTKSFNRGEC
notes: Fc carries L234A/L235A; also called CD3×TROP2重组双特异抗体; CD3×TROP2抗体
For the molecule B1, the binding result is “binds”.
